Data from article PMC4227783.

Biological target: T1, TbTRF Myb domain (Trypanosoma brucei, UniProt Q4VHG6 281-382)
T1 sequence: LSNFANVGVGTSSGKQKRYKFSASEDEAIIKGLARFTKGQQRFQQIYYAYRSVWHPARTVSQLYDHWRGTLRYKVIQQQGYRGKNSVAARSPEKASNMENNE
Experiment: ITC

B1: regular 13-mer telomeric oligo (dsDNA)
DNA 1: GGTTAGGGTTAGG
DNA 2: CCTAACCCTAACC
B1: binds.
